According to patent US20070065439A1:

Biological target: type I IL-1 receptor (IL-1R) (UniProt P14778)
Assay: cell-based or functional assay

type I IL-1 receptor (IL-1R), sequence (P14778 18-569 limits assumed): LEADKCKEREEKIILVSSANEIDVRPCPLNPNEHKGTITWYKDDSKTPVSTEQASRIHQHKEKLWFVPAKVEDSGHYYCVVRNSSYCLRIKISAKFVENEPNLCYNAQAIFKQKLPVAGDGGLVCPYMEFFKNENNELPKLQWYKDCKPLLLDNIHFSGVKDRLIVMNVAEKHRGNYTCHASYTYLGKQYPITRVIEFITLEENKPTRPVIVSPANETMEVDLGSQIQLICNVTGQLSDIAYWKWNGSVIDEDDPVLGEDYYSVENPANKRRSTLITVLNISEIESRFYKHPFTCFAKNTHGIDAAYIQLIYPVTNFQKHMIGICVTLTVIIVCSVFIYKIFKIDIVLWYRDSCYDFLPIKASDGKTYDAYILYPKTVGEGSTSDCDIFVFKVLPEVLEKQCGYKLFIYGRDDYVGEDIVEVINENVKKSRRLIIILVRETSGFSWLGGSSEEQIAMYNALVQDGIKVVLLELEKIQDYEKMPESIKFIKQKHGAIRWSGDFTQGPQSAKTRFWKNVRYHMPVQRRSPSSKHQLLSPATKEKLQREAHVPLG

- EC50, inhibition of IL-1β-induced IL-6 production in MRC-5 cells: 0.077 nM
- EC50, inhibition of IL-1β-induced IL-8 production in human whole blood: 0.984 nM
Substance: anakinra (KINERET) (from UniProt P18510 26-177) (ligand)
